Article PMC2854372 (The Journal of Cell Biology, 2010)

Tests used:
Bbp1-TAP = molecular target: T1, Bbp1-TAP (budding yeast, UniProt Q12365 1-385); test: pull-down
T1 sequence (looked up): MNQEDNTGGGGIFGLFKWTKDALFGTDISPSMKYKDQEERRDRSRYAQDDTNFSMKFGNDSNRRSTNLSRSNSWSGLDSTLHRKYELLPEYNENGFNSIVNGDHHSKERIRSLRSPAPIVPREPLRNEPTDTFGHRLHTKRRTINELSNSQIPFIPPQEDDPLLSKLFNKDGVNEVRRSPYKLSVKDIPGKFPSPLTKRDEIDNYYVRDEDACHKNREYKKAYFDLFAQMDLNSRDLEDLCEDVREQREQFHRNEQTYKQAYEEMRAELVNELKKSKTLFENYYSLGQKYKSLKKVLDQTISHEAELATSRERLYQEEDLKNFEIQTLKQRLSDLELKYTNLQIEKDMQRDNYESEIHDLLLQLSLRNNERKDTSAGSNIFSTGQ

Kar1 peptide = molecular target: T2, Kar1 peptide (budding yeast)
T2 peptide: KKRELIESKWHRLLFHDKK

B1: GST-Spc29 phosphorylated by 6His-Mps1 (natural protein, budding yeast, UniProt P33419 1-253, looked up)
chain: MDYSNFGNSASKKFQDDTLNRVRKEHEEALKKLREENFSSNTSELGNKKHYRAQERMSSPLHRLSPTGKSDDRKVKSPLDDKLRRQLREGNTRLPPPPFSSYGMPPTNRSNLDRIRRRTSSPVRTDKFASQNVIDDQRLEIKYLERIVYDQGTVIDNLTSRITRLESFILNSISDRGDKNFASLEHSRSFSGFPTNKTYGLQMGGLYENDMPYRRSSDNINKEGAREDRSSQIHIENESTEDILKILSSSFHN
modifications: phosphorylated in vitro by Mps1; sites identified by LC-MS/MS: T18, T159, S187 and T240
For B1, the “fold binding against GST-Spc29 treated with kinase-dead mps1KD” value (Bbp1-TAP) was 5 fold.

B2: GST-Spc29, nonphosphorylated (natural protein, budding yeast, UniProt P33419 1-253, looked up)
chain: MDYSNFGNSASKKFQDDTLNRVRKEHEEALKKLREENFSSNTSELGNKKHYRAQERMSSPLHRLSPTGKSDDRKVKSPLDDKLRRQLREGNTRLPPPPFSSYGMPPTNRSNLDRIRRRTSSPVRTDKFASQNVIDDQRLEIKYLERIVYDQGTVIDNLTSRITRLESFILNSISDRGDKNFASLEHSRSFSGFPTNKTYGLQMGGLYENDMPYRRSSDNINKEGAREDRSSQIHIENESTEDILKILSSSFHN
B2: binds (Bbp1-TAP).

B3: Cdc31-T110D (natural protein, budding yeast, UniProt P06704 1-161, looked up)
chain: MSKNRSSLQSGPLNSELLEEQKQEIYEAFSLFDMNNDGFLDYHELKVAMKALGFELPKREILDLIDEYDSEGRHLMKYDDFYIVMGEKILKRDPLDEIKRAFQLFDDDHDGKISIKNLRRVAKELGETLTDEELRAMIEEFDLDGDGEINENEFIAICTDS
For B3, the “fold lower ability to bind than wild-type Cdc31” value (Kar1 peptide) was about 10 fold.
